In a protein production outcome set (Wang et al. 2014):

Test: label from the status in PepcDB records

Sequence	protein production
MARLHPIYSGQSDRPAILFVHGLDGHWLETWRHDACSKDDCWPHWVGEETGCDIWSLEYDAALSGWLDQAMPLPDQGSQVMDLLASAPALKGKPLVFVTHSLGGILVKTALVYGAEEDRRFQHIVDHVLGVVFIATPHSGAQLATLARVIKYLLRINPPVGNLEHHDPHLRTLNRRYQTLVKERGIEGYVYAEKRGVKIGPRGFGGWLRRIEPTVMVVDPGSTDPSLPEIQPISLAEDHISICKPPDRQQQIHLSLCHVLKEKIIPLAGDRGMGTTGVGLKLLESGTAQENPAAHMPPGRLVGPDDNRLSPREGKVYGRKTQENDVLAFLKGSEPVKVVGGVAGVGKTEVCKAALKTWLHTSPRPVAYYVRVPDRARSADLVLQVGKAVGIENCESLAQLLGVIPVGLYYLDNLESVADDQEGRNALRDLAQKPGVRILASSRTRLDTIFGAPIEIKCLSAPDALALFRDLWPPTQTLPKDDELQAFVIGKLGGHALSLVLVARLGMCLSFDALRRRWDEEGAALACDGVEDDTRTSNLTFNLRLTAEVLAPTPGALSVWVLMALFEEGIPEAVLEEVERRGQWPTLARHRLAVHHLISKRGDRWFLPPPVARYARYAAVTEQDGFCWRKSRQPILDLFLVFAEKASSFDSSPETLKAKKWILEFFNTISIVIECELESNVQNKFWLNRMSYFLRDIYQQRIAVSPALLRKLADAGIQPANTLRSLGDLASRLGQVDKARSLYEKALGLSQQEQSGLGQANALKALGDLASRLGQVDKARSLYETALGLFQQEQHGLGQANTLHGLGDLASQLGQVDKARSLYEKALGLFQQEPNGLGQANTLKSLGALEYRLGQVDKARSLYEKAVDLYRIEQEPLGLAYSLTNLALCFEVLKNLSKRNQVLKAAFVASRDANNEIVQIYLKEAIPEMPGADVLYDSWLKGQSR	failed
MARLNVNPTRMELSRLKKQLTTATRGHKLLKDKQDELMRRFIALVKENNELRIQVEQEVTDALSNFVLANATLNEAFIEELVAIPAEKVELEIIEQNILSVPVPKMIFDYDESVQEAPLDYGYVNSNSELDQAFAKISSILPKLLALANVEKTCQLLSKEIEKTRRRVNALEYMTIPQLEETIYYIQMKLEENERGEITRLIKIKSMNKENLEHHHHHH	failed
MARMGGKKHLKALVAPKFWPILRKEYKWAVKPSPGPHPIERCFPLLIIVRDILGYAKTAREARKLISEGHFKVDGRVRKNYKYPVGLMDVIEIVDTGETYRVIPVPVKVLGLIEIDKEEAKYKLSRIENKTTVKGGHIQLNLHDGRNVLIKVSDPKNPVEDIYKTLGTLQISIPEQQILNYIPLDEGTLVIISGGRNVGRVGKVVSIHKGIRRHRSIVTIEDKHGNKFQTSLTYVFPIGKEEPLIKLPEGAW	failed
MARNSDNDMCKEERKRESFFKVLQRVDISSENMRALPYDFVRSFSNNELSRKMKIKARWGSSWEVEICKNPRFYFMEKSGWEKFVSDNALGASEFLTFTHKGNMRFTVNIFMQDGKEMLQPPQSMSFMASSRPPKREQGIPSLATTIAAESNGGGNYKRKLNFEKKKAEESHNSKRTDKVFSVQRESAGASSSSVAEFSMFIKKSYLIYMWFPKSVQSIHMPKQRTIFKIHHPNMKKSWNVVYVVSGTKSSFSAGWKGLAQEYPLAVGDTCKFSFIKQHELILFVSKP	failed
MARPLVPSSQKALLLELKGLQEEPVEGFRVTLVDEGDLYNWEVAIFGPPNTYYEGGYFKARLKFPIDYPYSPPAFRFLTKMWHPNIYETGDVCISILHPPVDDPQSGELPSERWNPTQNVRTILLSVISLLNEPNTFSPANVDASVMYRKWKESKGKDREYTDIIRKQVLGTKVDAERDGVKVPTTLAEYCVKTKAPAPDEGSDLFYDDYYEDGEVEEADSCFGDEEDDSGTEES	failed
MARPQPCGPPHARCGSPSLPERPLQVKVVGLFSCPNFQIAKSAAENLKNNHPSKFEDPILVPLQEFAWHQYLQEKKRELKNETWEYSSSVISFVNGQFLGDALDLQKWAHEVWDIVDIKPSALYDALTEDFSAKFLRDTKHDFVFLDICIDSSPIGRLIFELYCDVCPKTCKNFQVLCTGKAGFSQRGIRLHYKNSIFHRIVQNGWIQGGDIVYGKGDNGESIYGPTFEDENFSVPHNKRGVLGMANKGRHSNGSQFYITLQATPYLDRKFVAFGQLIEGTEVLKQLELVPTQNERPIHMCRITDSGDPYA	failed
MARPRDRQKLDAVKVVETLDNLHARVSERFPASGLAMVCARLADTGRQTAARARRIGRPYLLLRALVVLIIVGGVALEFALAWRLDWSAALRAREGFDLAQGLEAAINLALLSGAAAWFLSSLERRWKQQRVQVALHELRSFCHVIDMHQLTKDPSVILGPRTRHSPPREMSNFQLSRYLDYCAEMLALTAKLAALYAGETDDPVIIAAVNDIETLASDLGRKIWQKIMILGQLNEAAAAQA	failed
MARSQQFPSSTAVSVSPPAASSIAKPPQPVLDGLWAFAPNRDTLGGTAYFLKLPQGNWLIDAPAWHGETQAFVEEQGGLQGVFLTHRGAFGKAIAIQQHFDCDLVVQEQEAYLLPGANVTTFEQEQAIAPALTAIWTCGHSPGSACLYWEGHGGVLFTGRHLLPTRAGGVAPLRTAKTFHWPRQIRNTQMLCDRFSSETLAWICPGASSGFLRGRKAIASAYMQLQQLDWSALSEAQPLL	failed
MARSRVAGSKEAGPKVAGSRSRAAGQGRVGARLADGLRAYRMIAGMWIRSTMAYRASFVMTTFGNFGATALDFVAILLMFSQVDALGGYTLPEIAFLYGVAGIAFGLADLAIGSMDRLGRRVRDGTLDTLLVRPAPVLAQVAADRFALRRLGRITQGLLVFGYAVAALDIAWTPLKVLMVPFMMLSGGAIFAAVFVAGGAFQFVAQDASEVQNSFTYGGQTLLQYPPTVFAADLVRGVTFVVPIAFVNWLPALYVLGRPYPLDLPTWVAFTPPLVAAACCALAGLAWRAGLRSYRSTGS	failed
MARSVVVSAEAVYSHEGEYVGDHVLVDEGLVKSISRGEPHVSVGKRVAVKGFLLPPLVDAHLHMRSLGASFRIVNLKGASSPEEVAKRLAAANSPIAVGRGWNEEEFRPGSRLDRRILDSYLGEKPALAVRICGHVAVANSAFIRESGVDKLFPNLVDRERGLLLEDAVSYAVSVAMKTYNNEELLRDAASALASVGVFGVSSMACSEEEVRALSLIGDALEVRVACYLRRGVEPPPKRAGARWSIVGVKLFADGSLGGRTAYLRRPYISGENEGWRGLKLLSSRDIAEEAVSNSHRGLATAVHAIGDAALDEVLEGFSNAISRGVEPGMLRVEHASLAWPNQIDRLASLRVWTVVQPLFRVSDWWLESRVGSDMLQAAYPFASMLRAGVKLALSTDAPVETYDPAETFKAAVGLCSSRLCRESESLTPRETLKLYTLNSALASGGPVAWLGRLRRGAPALFAVANVDVLNSGRKELEKLKFRGLNLAK	failed
MASASFSAVSSLSYQFRSKEAIFSSKASCFSSTALSGRRVFGSIKAAQVTSHENPRRRTQNVEGDIFVDNTCIDCDTCRWMVPDLFTRVDNMSAVTKQPTCKEERLNALQALLSCPTGSIRTQTPPADIGEAQETFPLVVDKDTLPGVFHCGFHSKKSYGATSYLILHREGNILVDSPRYVEKLAGKIEMKGGVRYMFLTHRDDVADHKKWADRFKSTRILHSDDVEPSTSDVELKLEGSGPWSIYEDVELIHTPGHSEGSVCMFHKSLKALFTGDHVIMTESGLSILEQYNHGSVPLQLENVEKLINLDFNWLIPGHGRRVHFKDGDEKAKNLEALVQKHREKQLVSFSKSGKA	failed
MASEMKFAWLLAPDTYWDEKKTFITAALESGIDHIVDTADSGRIKKLGNLTLISPDEDADIVLVGRDGEGDGTLELPETLEYSRDIEMASELSESGRQVAAYVEIRSKAHEELARRLGRVVDYLILVGEDWKIIPLENIIADLQEEDVKLIAAVADVDEARVALETLEHGTDGVLIEPADISQIKDIAALLENIESETYELKPATITRIEPIGSGDRVCVDTCSIMGIGEGMLVGSYSQGLFLVHSESLESEYVASRPFRVNAGPVQAYVMVPGGRTRYLSELETGDEVIIVDRDGRSRSAIVGRVKIEKRPLMLVEAEYEGMKVRTLLQNAETIRLVNDKGEPVSVSELGEGDRVLVYFDESARHFGMAIKETIIEKLEHHHHHH	not failed
MASFPELPALRRLATLGRSWGLLSDFKYEQTRPDIFYGNLALDTSSLVAALSEDISGAGLNDLKVLDVGGGPGYFAEAFETLGATYFSVEPDVGEMSAAGIDVHGSVRGSGLDLPFLPDSFDVVYSSNVAEHVSAPWELGEEMLRVTRSGGLAILSYTIWLGPFGGHETGLWEHYVGGEFARDRYTKKHGHPPKNVFGESLFNVSCREGLEWGASVGNAELVAAFPRYHPYWVWWMVKVPVLREFAVSNLVLVFKKHLEHHHHHH	failed
MASFSAETNSTDLLSQPWNEPPVILSMVILSLTFLLGLPGNGLVLWVAGLKMQRTVNTIWFLHLTLADLLCCLSLPFSLAHLALQGQWPYGRFLCKLIPSIIVLNMFASVFLLTAISLDRCLVVFKPIWCQNHRNVGMACSICGCIWVVAFVMCIPVFVYREIFTTDNHNRCGYKFGLSSSLDYPDFYGDPLENRSLENIVQPPGEMNDRLDPSSFQTNDHPWTVPTVFQPQTFQRPSADSLPRGSARLTSQNLYSNVFKPADVVSPKIPSGFPIEDHETSPLDNSDAFLSTHLKLFPSASSNSFYESELPQGFQDYYNLGQFTDDDQVPTPLVAITITRLVVGFLLPSVIMIACYSFIVFRMQRGRFAKSQSKTFRVAVVVVAVFLVCWTPYHIFGVLSLLTDPETPLGKTLMSWDHVCIALASANSCFNPFLYALLGKDFRKKARQSIQGILEAAFSEELTRSTHCPSNNVISERNSTTV	failed
MASGKQFMKKPIVWTIAGVDSSGLAGVHADMETFSRLNVRACSVITAVTAQNAHSIIAVEEISRDQVAAQCRALELNLKPDAIKIGMLCSTPICEEIAYFLKGYEGFVVLDPIITSSSGTNLFFPDLQQHKNNLIQLFPYITIITPNRIEAEIILNRSIYSYQDIINAASDLLSLGAKQVLLKGGHVKDNSFSQDYWTDGKESFWIANRRFPETNYRGTGCVLSSALTACLALGYSIKDAIVIAKMYVNRGIRQSIEIDKDASQLYHDGWPEDEADLPYLSPTPFIKPVPSFKKYSMGFYPIVDSSHWLEMLLPLGIKCIQLRIKEASQERLEEEIKRSVHLANQYNAALFINDHWELAIHYGAAGVHLGQEDLEKADVDRINRSGLFLGISTHCYYEVARAHALNPSYVACGPIYETTSKIMPFQAQGIARLERWRKTLRYPLVAIGGITLKNLSDVLKTKIDGVSVISAITKASAPLVAAKQFLTQMNESHNE	failed
MASHVDLLTELQLLEKVPTLERLRAAQKRRAQQLKKWAQYEQDLLHRKRKHERKRSTGGRRKKVSFEASVALLEASLRNDAEEVRYFLKNKVSPDLCNEDGLTALHQCCIDNFEEIVKLLLSHGANVNAKDNELWTPLHAAATCGHINLVKILVQYGADLLAVNSDGNMPYDLCEDEPTLDVIETCMAYQGITQEKINEMRAAPEQKMISDIHCMIAAGQDLDWIDGQGATLLHIAGANGYLRAAELLLDHGVRVDVKDWDGWEPLHAAAFWGQMPMAELLVSHGASLSARTSMDEMPIDLCEEEEFKVLLLELKHKHDVIMKSQLRHKSSLSRRTSSAGSRGKVVRRASLSDRTNLYRKEYEGEAILWQQRSAAEEQRTSTYNGDIRETRTDQENKDPNPRLEKPVLLSEFSTKISRGELDGPVENGLRAPVSTYQYALANGDIWKMHEIPDYSMAYGNPGMADVPPPWSGFKEQSPQTLLELKRQRAAAKLLSHPFLSTHLGSSVARSGEGSSEGKAPLIGGRTSPYSSNGTSVYYTVTSGDPPLLKFKAPMEEMEEKVHGCCRIS	failed
